# Measured values published in paper PMC1839165, “Virus Evolution Reveals an Exclusive Role for LEDGF/p75 in Chromosomal Tethering of HIV” (PLoS Pathogens, 2007).
# B1: C-terminal His6-tagged HIV-1 integrase, wild type (enzyme, HIV-1 (NL4-3), UniProt P12497 1148-1435, looked up)
# chain: FLDGIDKAQEEHEKYHSNWRAMASDFNLPPVVAKEIVASCDKCQLKGEAMHGQVDCSPGIWQLDCTHLEGKVILVAVHVASGYIEAEVIPAETGQETAYFLLKLAGRWPVKTVHTDNGSNFTSTTVKAACWWAGIKQEFGIPYNPQSQGVIESMNKELKKIIGQVRDQAEHLKTAVQMAVFIHNFKRKGGIGGYSAGERIVDIIATDIQTKELQKQITKIQNFRVYYRDSRDPVWKGPAKLLWKGEGAVVIQDNSDIKVVPRRKAKIIRDYGKQMAGDDCVASRQDED
# notes: HIV-1 NL4-3 integrase (IN), the cut product of the Gag-Pol polyprotein; GenBank U26942, base pairs 3608 through 4471; the results call it IN^s (IN from a synthetic gene); also called IN-WT; WT IN^s; not shown: His6, C-terminal, kept
# B2: MBP-Δ325 (domain or fragment, human, UniProt O75475-1 325-530, looked up)
# chain: EQQNKDEGKKPEVKKVEKKRETSMDSRLQRIHAEIKNSLKIDNLDVNRCIEALDELASLQVTMQQAQKHTEMITTLKKIRRFKVSQVIMEKSTMLYNKFKNMFLVGEGDSVITQVLNKSLAEQRQHEEANKTKDQGKKGPNKKLEKEQTGSKTLNGGSDAQDGNQPQHNGESNEDSKDNHEASTKKKPSSEERETEISLKDSTLDN
# notes: GenBank NM_033222; also called Δ325-MBP; Δ325 fragment; source: E. coli BL21 (plasmid pMBP-Δ325), purified
# B3: MBP-IBD (domain or fragment, human, UniProt O75475-1 347-429, looked up)
# chain: SMDSRLQRIHAEIKNSLKIDNLDVNRCIEALDELASLQVTMQQAQKHTEMITTLKKIRRFKVSQVIMEKSTMLYNKFKNMFLV
# notes: the introduction gives amino acids 347 to 429 for the IBD; GenBank NM_033222; The limits are those printed for the minimal IBD in the introduction; also called IBD-MBP; source: E. coli BL21 (plasmid pMBP-IBD), purified
# Legend:
# [1] = molecular target: C-terminal His6-tagged HIV-1 integrase E170G (HIV-1 (NL4-3)); assay: AlphaScreen or HTRF; 300 nM C-terminal His6-tagged IN with increasing MBP-Δ325 (30 to 300 nM); Ni-chelate acceptor beads, anti-MBP donor beads; 25 mM Tris/HCl pH 7.3, 150 mM NaCl, 1 mM MgCl2, 0.01% Tween-20, 0.1% BSA; room temperature
# [2] = molecular target: C-terminal His6-tagged HIV-1 integrase A128T (HIV-1 (NL4-3)); assay: as above
# [3] = molecular target: C-terminal His6-tagged HIV-1 integrase A128T/E170G (HIV-1 (NL4-3)); assay: as above
# Nontagged LEDGF/p75 = molecular target: T1, Nontagged LEDGF/p75 (human, UniProt O75475-1 1-530); assay: pull-down; 6 μg C-terminal His6-tagged IN on Ni-NTA-agarose; 6 μg LEDGF/p75, MBP-IBD or MBP-Δ325 added; 25 mM Tris-HCl pH 7.4, 0.1% Nonidet P-40, 20 mM imidazole, 150 mM NaCl, 1 mM MgCl2, BSA; 4 h at 4 °C; SDS-PAGE, Coomassie Blue; conditions: both partners purified
# T1 construct: LEDGF/p75, human, 530 amino acids, GenBank NM_033222; also called recombinant LEDGF/p75; full-length LEDGF/p75; source: E. coli BL21(DE3) (plasmid pCPnat75), purified
# [4] = molecular target: B1; assay: AlphaScreen or HTRF; 30 nM C-terminal His6-tagged IN with increasing MBP-Δ325 (30 to 300 nM); Ni-chelate acceptor beads, anti-MBP donor beads; 25 mM Tris/HCl pH 7.3, 150 mM NaCl, 1 mM MgCl2, 0.01% Tween-20, 0.1% BSA; room temperature; conditions: both partners purified
# [5] = molecular target: B1; assay: pull-down; 6 μg C-terminal His6-tagged IN on Ni-NTA-agarose; 6 μg LEDGF/p75, MBP-IBD or MBP-Δ325 added; 25 mM Tris-HCl pH 7.4, 0.1% Nonidet P-40, 20 mM imidazole, 150 mM NaCl, 1 mM MgCl2, BSA; 4 h at 4 °C; SDS-PAGE, Coomassie Blue; conditions: both partners purified
molecule,measurement,setting,value
MBP-Δ325 (from UniProt O75475-1 325-530) (domain or fragment),fold reduction of the AlphaScreen signal compared with IN-WT (300 nM IN),[1],3 fold
same,fold reduction of the AlphaScreen signal compared with IN-WT (300 nM IN),[2],2 fold
same,"fold reduction of the AlphaScreen signal compared with IN-WT (300 nM IN, 300 nM MBP-Δ325)",[3],8 fold
B1,binding result,Nontagged LEDGF/p75,binds
B2,binding result,[4],binds
B3,binding result,[5],binds
